Measurements taken from patent US12648996B2, “RNA aptamers and uses thereof” (UNIVERSITY OF MIAMI, priority 2019, dated 2026).

B1: aptamer 3: 2'Fluoro-RNA aptamer, SEQ ID NO: 3, specific for tumor infiltrating myeloid cells; ligand ANXA4 (nucleic acid)
chain: GGAGGACGAUGCGGAUUACCAACUUGAACGCCGAGAGUGUGGUCACGUGUUCUGCAGACGACUCGCUGAGGAUCCGAGA
modifications: 2'-fluoro modified RNA, modified positions not given here, Cy3-labelled for binding assays
notes: ligand ANXA4
B2: aptamer 6: 2'Fluoro-RNA aptamer, SEQ ID NO: 6, specific for tumor infiltrating myeloid cells (nucleic acid)
chain: GGAGGACGAUGCGGCAGGUGCGGGAUCUAAUGCGUAGACAGCCAUAUACUGACACAGACGACUCGCUGAGGAUCCGAGA
modifications: 2'-fluoro modified RNA, modified positions not given here, Cy3-labelled for binding assays
B3: aptamer 11: 2'Fluoro-RNA aptamer, SEQ ID NO: 11, specific for tumor infiltrating myeloid cells; ligand vimentin (nucleic acid)
chain: GGAGGACGAUGCGGGGAAGCAACACUUAGUCGCGAUUGAUACGUGCGCAGUCAUCAGACGACUCGCUGAGGAUCCGAGA
modifications: 2'-fluoro modified RNA, modified positions not given here, Cy3-labelled for binding assays
notes: ligand vimentin
B4: aptamer 14: 2'Fluoro-RNA aptamer, SEQ ID NO: 14, specific for tumor infiltrating myeloid cells (nucleic acid)
chain: GGAGGACGAUGCGGUGUACACUGAUUGCCUUUGUGUUAUGAGCGACAGAUCUGCCAGACGACUCGCUGAGGAUCCGAGA
modifications: 2'-fluoro modified RNA, modified positions not given here, Cy3-labelled for binding assays

Legend:
[1] = test system: 4T1 mammary carcinoma; experiment: Therapeutic efficacy and toxicity in 4T1 bearing BALB/c mice; assay type: in vivo, mouse
Description: FIGS. 7A-7C. TIMC-specific aptamers increase doxorubicin therapeutic index. […] Treatment was repeated 2 and 6 days later. […] Weight loss as measure of toxicity is reported. […] Survival was monitored.
Aptamer-Doxorubicin treatment: Aptamer-doxorubicin was prepared by making DNA template with the appropriate aptamer followed by a GC-rich primer sequence downstream (GC rich Sul3′, FIG. 11. From this template, RNA was transcribed and purified as described above. Doxorubicin (Sigma) was mixed with the RNA sequence as needed. Doxil (ALZA corporation) was purchased through the University of Miami pharmacy.
BALB/c mice were injected IV with the 4T1 luciferase thy1.1 tumor cell line. Treatment was started when tumors reached 5 mm of diameter and repeated 2 and 6 days later. Tumor growth and mice weight was reported. Mice were evaluated at least 3 times a week and humanely euthanized when tumor size index reached 150 mm^2 or if they lose >20% of initial weight due to chemotherapy or tumor growth in compliance with the IACUC policy and animal protocol. Data are expressed as tumor size index defined as the product of the main diameter with the perpendicular one.
Next, the therapeutic efficacies of doxorubicin delivered by TIMC-specific aptamers was compared by PEGylated liposomes (Doxil, the first clinically available nanoparticle that became the gold standard for doxorubicin treatment (34, 35)), and as unconjugated molecules. Briefly, 4T1 bearing BALB/c mice were treated with unconjugated DOX at dose high, or low dose, or with low doses of DOX conjugated to the TIMC-specific aptamer, or with Doxil (low dose—0.35 mg/kg). Treatment was repeated 2 and 6 days later. As additional controls, mice were treated with unconjugated aptamers, irrelevant aptamers conjugated with doxorubicin, or left untreated.

[2] = biological target: T1, annexin A4 (ANXA4) (Mus musculus, UniProt P97429); experiment: FACS of epoxy beads conjugated with recombinant ANXA4; assay type: binding; details: beads loaded with relevant or irrelevant recombinant proteins
T1 construct: purchased myBiosource
T1 sequence (P97429 1-319): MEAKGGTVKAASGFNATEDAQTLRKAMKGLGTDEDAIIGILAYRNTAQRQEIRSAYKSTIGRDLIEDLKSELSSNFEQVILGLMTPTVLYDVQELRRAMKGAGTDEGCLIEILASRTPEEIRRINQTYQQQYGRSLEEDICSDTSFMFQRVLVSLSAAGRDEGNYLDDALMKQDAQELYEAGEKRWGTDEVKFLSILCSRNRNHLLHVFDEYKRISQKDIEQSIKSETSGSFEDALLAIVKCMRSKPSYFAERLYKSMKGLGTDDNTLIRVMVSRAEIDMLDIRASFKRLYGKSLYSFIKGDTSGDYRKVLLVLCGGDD
Description: (§1) FIG. 4A-4E. Characteristics of aptamers that preferentially recognize tumor infiltrating myeloid cells. FIG. 4A) Affinity of the aptamers for IL4 treated MSC2 cells was determined by FACS. Putative targets (ANXA4 and VIM) were identified via aptamer-based immunoprecipitation, SDS page, and mass spec analysis. Kds against ligands was determined by FACS against recombinant protein conjugated to epoxy beads. FIG. 4B) Epoxy beads conjugated with ANXA4 or irrelevant protein were stained with Cy3-labelled aptamer 3 or irrelevant aptamer and analyzed by FACS. FIG. 4C) Epoxy beads conjugated with vimentin or irrelevant protein were stained with Cy3-labelled aptamer 11 or irrelevant aptamer and analyzed by FACS. FIG. 4D) ANXA4 competitive assay. 5×10^5 IL4 treated MSC2 were stained with aptamer 3 in the presence or in the absence of recombinant ANXA4. FIG. 4E) MCS2 cells were transfected via the 4PD nanoparticle with shRNA against vimentin or with a scrambled shRNA. 4 days later cells were stained with Cy3-labelled aptamer 11 and DAPI. Pa=One-way ANOVA p value. Data derived from n=2 independent experiments.
(§2) FIG. 8A and FIG. 8B. Affinity of aptamers #3 (SEQ ID NO: 3), #6 (SEQ ID NO: 6), #11 (SEQ ID NO: 11) and #14 (SEQ ID NO: 14) for IL4 treated MSC2 or their putative ligand. […] Binding was evaluated by FACS. […] Binding was evaluated by FACS. […]

[3] = test system: TIMC from 4T1, CT26, RENCA, B16LU8, MCA203, E0771 tumors; experiment: Staining of single cell suspensions from tumor, bone marrow, spleen and lungs in multiple mouse tumor models; assay type: cell-based; details: BALB/c (4T1, CT26, RENCA) and C57Bl/6 (B16LU8, MCA203, E0771) tumor models
Text: (§3) Flow cytometry: Aptamers were labeled with Cy3 using the Silencer siRNA Labeling Kit—Cy3 (Ambion) and 37 pmoles were used to label 5×10^6 cells unless otherwise specified. In some experiments biotinylated aptamers were labelled with streptavidin conjugated with Alexa Fluor 647 or Alexa Fluor 750 and purified from unbound aptamer by Ultra-4 centrifugal filters, […] (Millipore).
(§4) Dead cells were excluded by the analysis by using 4′,6′-diamidino-2-phenylindole (DAPI; Sigma) or Live/Dead dye (Invitrogen). Samples were read on a LSR2 equipped with 405 nm, 488 nm, 532 nm, and 635 nm lasers (BD Bioscience). Data were analyzed using FCS6 express software (Denovo-Software).
The binding properties of monoclonal RNA aptamers 3, 6, 11 and 14 were evaluated in other tumor models. Aptamers 3, 6, 11, or 14 single cell suspensions were stained from tumor, bone marrow, spleen, and lungs of BALB/c mice bearing the 4T1 mammary carcinoma, the CT26 colon carcinoma, or the RENCA renal carcinoma. Similar analysis was performed on single cell suspensions from C57Bl/6 mice bearing B16LU8 melanoma, MCA203 fibrosarcoma or E0771 mammary carcinoma.

[4] = test system: tumor infiltrating myeloid cells (4T1 tumor); experiment: Flow cytometry of Cy3-labelled monoclonal aptamers on single cell suspensions from tumor and spleen of 4T1 bearing mice; assay type: cell-based, mouse; details: tumor and spleen of 4T1 challenged mice; splenic MDSCs and CD11b- cells p>0.05
Text: FIGS. 2A-C. […] FIG. 2A) Single cell suspensions from spleens and tumors of mice pooled from 3 mice bearing the 4T1 tumor (0.5 cm in diameter) were labelled with antibodies against CD11b, Ly6C, Ly6G and the 15 Cy3-labelled monoclonal aptamers identified by APTANI. Data derived from n=5 biological replica and derived from n=2 independent experiments. Aptamers 3 (SEQ ID NO: 3), 6 (SEQ ID NO: 6), 11 (SEQ ID NO: 11), and 14 (SEQ ID NO: 14) were chosen for further analysis and are in bold. *=P<0.001 by one-way ANOVA and post-hoc Holm-Sidak comparisons versus irrelevant aptamer. […] FIG. 2B) Secondary structure of aptamers 3 (SEQ ID NO: 3), 6 (SEQ ID NO: 6), 11 (SEQ ID NO: 11), and 14 (SEQ ID NO: 14). Binding motifs identified by APTANI are underlined in black. Fluorinated nucleotides are highlighted in gray. FIG. 2C) An equimolar mixture of the aptamers increases the specificity for tumor infiltrating myeloid cells. Pooled single cell suspension of tumor or spleen from 4T1 bearing mice were labeled with aptamers 3 (SEQ ID NO: 3), 6 (SEQ ID NO: 6), 11 (SEQ ID NO: 11), and 14 (SEQ ID NO: 14), or equimolar mixtures of each aptamer and analyzed by FACS. Data derived from n=3 independent experiments.
as §3, §4
These 15 aptamers were tested by flow cytometry against single cell suspensions from tumor and spleen of mice challenged with the 4T1 tumor (FIG. 2A).
Next, whether an equimolar mixture of aptamers 3, 6, 11 and 14 was more efficient in recognizing TIMC as compared to each individual aptamer was evaluated.

[5] = Aptamer-based immunoprecipitation and mass spectrometry (target identification); details: immunoprecipitation, mass spectrometry
Description: as §1
The specificity of aptamer 3 for ANXA4 and aptamer 11 for vimentin were tested by competitive experiments (FIG. 4D) and with validated shRNA (29) (FIG. 4E), respectively.

[6] = test system: 4T1 tumors and tissues arrays from naïve mice; experiment: Immunofluorescence microscopy on 4T1 tumors and tissues arrays from naïve mice; design: species or system mouse
Description: Immunofluorescence microscopy and Image cytometry: Fresh frozen tissue and tissues microarrays (AMSBIO) were fixed in 10% neutral-buffered formalin (BDH) for 15′ at RT, incubated with dextran sulfate sodium/PBS (1:2 m/V—Pharmacia biotech) for 30′ and washed with PBS. Tissues were then stained with Cy3-labelled aptamer (10 ug/ml) in PBS for 30′, masked with 2% BSA, and counterstained with antibodies and/or DAPI.
Specificity was further evaluated by immunofluorescence microscopy using 4T1 tumors and tissues arrays from naïve mice.

[7] = biological target: T2, vimentin (VIM) (Mus musculus, UniProt P20152); experiment: FACS of epoxy beads conjugated with recombinant vimentin; assay type: binding; details: beads loaded with relevant or irrelevant recombinant proteins
T2 construct: purchased myBiosource
T2 sequence (P20152 whole entry): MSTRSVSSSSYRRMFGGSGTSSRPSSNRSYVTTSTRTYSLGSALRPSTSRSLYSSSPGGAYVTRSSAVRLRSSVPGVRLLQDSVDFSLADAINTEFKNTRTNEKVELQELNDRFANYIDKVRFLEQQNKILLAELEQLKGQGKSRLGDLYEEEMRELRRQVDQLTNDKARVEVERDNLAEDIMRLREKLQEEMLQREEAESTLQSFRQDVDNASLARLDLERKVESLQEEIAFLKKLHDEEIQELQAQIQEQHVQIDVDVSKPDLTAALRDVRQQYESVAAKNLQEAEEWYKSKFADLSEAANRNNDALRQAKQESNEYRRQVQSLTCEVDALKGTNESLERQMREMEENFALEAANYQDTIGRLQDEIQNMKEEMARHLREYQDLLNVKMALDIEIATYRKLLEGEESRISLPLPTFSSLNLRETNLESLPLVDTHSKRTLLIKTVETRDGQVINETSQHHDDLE
Description: as §1, §2

Molecule | toxicity (body weight loss) ([1]; free DOX high dose 3.5 mg/kg, DOX-aptamer 0.35 mg/kg) | treatment related mortality ([1]; high doses of free doxorubicin) | anti-tumor effect ([1]; i.v., repeated 2 and 6 days later, free DOX high dose 3.5 mg/kg, Doxil and DOX-aptamer low dose 0.35 mg/kg) | specificity for annexin protein [2] | recognition of TIMC [3] | specificity for tumor infiltrating vs splenic myeloid cells [4] | putative target [5] | staining of tissues from naïve mice [6] | specificity for vimentin protein [7]
COc1cccc2c1C(=O)c1c(O)c3c(c(O)c1C2=O)C[C@@](O)(C(=O)CO)C[C@@H]3O[C@H]1C[C@H](N)[C@H](O)[C@H](C)O1 [free doxorubicin, doxorubicin] | significant body weight loss | 15% | No significant anti-tumor effect | – | – | – | – | – | –
B1 | – | – | – | confirmed the specificity | able to recognize TIMC | specific for tumor infiltrating myeloid cells | annexin A4 (ANXA4 isoform X1 P97495) | recognized hepatocytes at low intensity | –
B2 | – | – | – | – | able to recognize TIMC | specific for tumor infiltrating myeloid cells | No targets have been identified | showed binding for epithelial cells in the uterus and low binding for pancreatic acinar tissue | –
B3 | – | – | – | – | able to recognize TIMC | specific for tumor infiltrating myeloid cells | vimentin (VIM P20152) | – | confirmed the specificity
B4 | – | – | – | – | able to recognize TIMC | specific for tumor infiltrating myeloid cells | No targets have been identified | recognized intestinal villi and seems to show a nuclear staining of cerebellum, pancreatic acinar tissue, stomach and spleen | –
